Series [1] has as its target His-eTEV-Fn fusion protein, Ala mutant F6, P02751.
Series [2] has as its target His-eTEV-Fn fusion protein, Ala mutant L4, P02751.
The target in another series is T1, W tag fused GFPUV.
T1 chain: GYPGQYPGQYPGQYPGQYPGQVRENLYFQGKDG

Series [3] has as its target His-eTEV-Fn fusion protein, Ala mutant K9, P02751.
The target in series [4] is His-eTEV-Fn fusion protein, Ala mutant Y5, P02751.
Series [5] concerns the target His-eTEV-Fn fusion protein, Ala mutant D10, P02751.
In series [6] the target is His-eTEV-Fn fusion protein, Ala mutant Q7, P02751.
The target in series [7] is His-eTEV-Fn fusion protein (wild type), P02751.
Series [8] deals with His-eTEV-Fn fusion protein, Ala mutant M0, P02751.
Series [9] deals with His-eTEV-Fn fusion protein, Ala mutant E2, P02751.
In series [10] the target is His-eTEV-Fn fusion protein, Ala mutant R1, P02751.
In series [11] the target is His-eTEV-Fn fusion protein, Ala mutant G8, P02751.
The target of series [12] is His-eTEV-Fn fusion protein, Ala mutant G11, P02751.
Series [13] deals with His-eTEV-Fn fusion protein, Ala mutant N3, P02751.
His-eTEV-Fn fusion protein, Ala mutant N3, P02751, sequence (P02751 whole entry, looked up, change not shown, the tested form may be a part): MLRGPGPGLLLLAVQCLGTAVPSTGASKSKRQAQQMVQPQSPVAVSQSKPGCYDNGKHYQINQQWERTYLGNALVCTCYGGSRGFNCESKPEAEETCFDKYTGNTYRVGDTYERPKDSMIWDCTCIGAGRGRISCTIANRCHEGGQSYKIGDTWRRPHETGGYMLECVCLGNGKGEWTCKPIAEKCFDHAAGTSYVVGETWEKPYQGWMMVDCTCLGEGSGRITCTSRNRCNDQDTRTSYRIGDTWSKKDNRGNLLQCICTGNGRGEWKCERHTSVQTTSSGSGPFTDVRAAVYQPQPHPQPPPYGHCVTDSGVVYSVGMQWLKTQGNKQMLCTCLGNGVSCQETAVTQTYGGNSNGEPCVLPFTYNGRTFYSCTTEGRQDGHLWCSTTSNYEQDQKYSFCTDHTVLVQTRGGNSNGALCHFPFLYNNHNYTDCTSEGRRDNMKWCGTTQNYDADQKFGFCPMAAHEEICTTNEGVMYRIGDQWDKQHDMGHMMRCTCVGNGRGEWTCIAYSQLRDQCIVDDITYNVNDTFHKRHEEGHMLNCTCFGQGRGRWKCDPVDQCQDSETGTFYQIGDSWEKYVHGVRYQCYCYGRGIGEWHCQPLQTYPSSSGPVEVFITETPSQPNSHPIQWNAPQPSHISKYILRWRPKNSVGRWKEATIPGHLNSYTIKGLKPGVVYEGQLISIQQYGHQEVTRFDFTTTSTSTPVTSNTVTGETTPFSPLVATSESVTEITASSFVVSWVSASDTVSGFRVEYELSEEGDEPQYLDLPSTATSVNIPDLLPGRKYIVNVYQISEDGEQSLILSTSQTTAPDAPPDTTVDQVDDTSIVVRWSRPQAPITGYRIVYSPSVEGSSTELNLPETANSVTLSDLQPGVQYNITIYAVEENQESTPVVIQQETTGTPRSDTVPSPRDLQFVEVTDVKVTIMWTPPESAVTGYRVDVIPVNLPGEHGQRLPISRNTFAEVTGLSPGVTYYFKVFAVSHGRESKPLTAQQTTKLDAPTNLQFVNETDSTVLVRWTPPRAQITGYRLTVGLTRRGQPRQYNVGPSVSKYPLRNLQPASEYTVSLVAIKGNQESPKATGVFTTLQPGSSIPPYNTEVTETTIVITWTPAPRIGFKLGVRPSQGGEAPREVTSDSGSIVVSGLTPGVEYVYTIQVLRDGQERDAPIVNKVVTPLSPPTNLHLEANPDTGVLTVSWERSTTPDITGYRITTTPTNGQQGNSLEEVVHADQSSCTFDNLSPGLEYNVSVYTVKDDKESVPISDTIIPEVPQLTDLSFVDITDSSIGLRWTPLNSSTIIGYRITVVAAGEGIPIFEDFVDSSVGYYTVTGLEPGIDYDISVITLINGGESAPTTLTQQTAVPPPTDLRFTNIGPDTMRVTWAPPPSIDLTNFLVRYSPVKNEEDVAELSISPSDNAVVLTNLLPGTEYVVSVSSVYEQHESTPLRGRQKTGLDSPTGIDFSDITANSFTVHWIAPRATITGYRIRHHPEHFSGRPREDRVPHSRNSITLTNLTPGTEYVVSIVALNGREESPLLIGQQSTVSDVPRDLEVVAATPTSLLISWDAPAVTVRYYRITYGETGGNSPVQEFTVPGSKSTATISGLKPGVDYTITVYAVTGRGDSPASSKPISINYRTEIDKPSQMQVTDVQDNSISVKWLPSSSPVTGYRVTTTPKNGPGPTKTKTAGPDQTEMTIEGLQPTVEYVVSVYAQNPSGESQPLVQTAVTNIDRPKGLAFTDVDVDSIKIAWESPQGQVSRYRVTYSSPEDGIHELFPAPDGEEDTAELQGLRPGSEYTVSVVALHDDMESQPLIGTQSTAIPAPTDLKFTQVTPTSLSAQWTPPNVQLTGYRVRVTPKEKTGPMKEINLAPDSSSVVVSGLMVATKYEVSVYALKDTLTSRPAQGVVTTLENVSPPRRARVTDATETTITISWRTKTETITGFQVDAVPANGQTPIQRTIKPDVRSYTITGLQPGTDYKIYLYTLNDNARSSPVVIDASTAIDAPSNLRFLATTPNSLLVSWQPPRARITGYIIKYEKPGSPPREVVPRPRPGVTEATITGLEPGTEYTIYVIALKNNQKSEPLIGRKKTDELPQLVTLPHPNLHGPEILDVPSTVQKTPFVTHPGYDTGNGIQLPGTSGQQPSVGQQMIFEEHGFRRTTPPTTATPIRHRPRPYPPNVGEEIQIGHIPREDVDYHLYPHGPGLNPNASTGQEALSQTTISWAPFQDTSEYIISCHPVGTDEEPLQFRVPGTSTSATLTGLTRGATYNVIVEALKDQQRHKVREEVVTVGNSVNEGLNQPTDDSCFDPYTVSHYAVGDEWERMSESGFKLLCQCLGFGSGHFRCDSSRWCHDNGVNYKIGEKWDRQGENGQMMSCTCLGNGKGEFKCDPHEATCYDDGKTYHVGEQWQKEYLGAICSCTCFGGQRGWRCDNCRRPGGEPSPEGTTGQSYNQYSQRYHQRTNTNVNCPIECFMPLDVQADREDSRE

His-eTEV-Fn fusion protein, Ala mutant Q7, P02751, sequence (P02751 whole entry, looked up, change not shown, the tested form may be a part): as above
His-eTEV-Fn fusion protein, Ala mutant R1, P02751, sequence (P02751 whole entry, looked up, change not shown, the tested form may be a part): as above
His-eTEV-Fn fusion protein, Ala mutant G11, P02751, sequence (P02751 whole entry, looked up, change not shown, the tested form may be a part): as above
His-eTEV-Fn fusion protein, Ala mutant K9, P02751, sequence (P02751 whole entry, looked up, change not shown, the tested form may be a part): as above
His-eTEV-Fn fusion protein, Ala mutant L4, P02751, sequence (P02751 whole entry, looked up, change not shown, the tested form may be a part): as above
His-eTEV-Fn fusion protein, Ala mutant D10, P02751, sequence (P02751 whole entry, looked up, change not shown, the tested form may be a part): as above
His-eTEV-Fn fusion protein, Ala mutant E2, P02751, sequence (P02751 whole entry, looked up, change not shown, the tested form may be a part): as above
His-eTEV-Fn fusion protein, Ala mutant M0, P02751, sequence (P02751 whole entry, looked up, change not shown, the tested form may be a part): as above
His-eTEV-Fn fusion protein, Ala mutant F6, P02751, sequence (P02751 whole entry, looked up, change not shown, the tested form may be a part): as above
His-eTEV-Fn fusion protein, Ala mutant G8, P02751, sequence (P02751 whole entry, looked up, change not shown, the tested form may be a part): as above
His-eTEV-Fn fusion protein, Ala mutant Y5, P02751, sequence (P02751 whole entry, looked up, change not shown, the tested form may be a part): as above
His-eTEV-Fn fusion protein (wild type), P02751, sequence (P02751 other isoform, or with tags, fused parts or gaps): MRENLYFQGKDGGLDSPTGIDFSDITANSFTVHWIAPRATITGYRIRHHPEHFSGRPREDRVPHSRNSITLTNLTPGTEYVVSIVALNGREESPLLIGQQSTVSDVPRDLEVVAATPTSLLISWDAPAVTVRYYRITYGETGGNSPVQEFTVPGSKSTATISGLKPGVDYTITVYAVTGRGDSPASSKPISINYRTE

B1: Tobacco etch virus (TEV) protease (protein)
chain: GESLFKGPRDYNPISSTICHLTNESDGHTTSLYGIGFGPFIITNKHLFRRNNGTLLVQSLHGVFKVKNTTTLQQHLIDGRDMIIIRMPKDFPPFPQKLKFREPQREERICLVTTNFQTKSMSSMVSDTSCTFPSSDGIFWKHWIQTKDGQCGSPLVSTRDGFIVGIHSASNFTNTNNYFTSVPKNFMELLTNQEAQQWVSGWRLNADSVLWGGHKVFMSKPEEPFQPVKEATQLMNELVYSQ
For the protein B1, the “cleavage by TEV protease (SDS electrophoresis, 24 kDa to 20 kDa shift)” value is “the other residues are substitutable with Ala” in series [1]; “the 4th, 5th and 7th amino acids (namely, Leu, Tyr and Gln) are essential for the substrate of TEV protease” in series [2]; “the other residues are substitutable with Ala” in [3]; “the 4th, 5th and 7th amino acids (namely, Leu, Tyr and Gln) are essential for the substrate of TEV protease” in [4]; “the other residues are substitutable with Ala” in series [5]; “the 4th, 5th and 7th amino acids (namely, Leu, Tyr and Gln) are essential for the substrate of TEV protease” in series [6]. The “cleavage by TEV protease (SDS electrophoresis, 24 kDa to 20 kDa shift)” value in series [7] is “The eTEV peptide is recognized and cleaved by TEV protease”; in series [8], “the other residues are substitutable with Ala”; in series [9] it was “substitution of Ala for Glu at residue 2 gives no significant change in cleavage”; in series [10] it was “the other residues are substitutable with Ala”; in series [11], “the other residues are substitutable with Ala”; in series [12] it was “the other residues are substitutable with Ala”. In addition, the “cleavage by TEV protease (SDS electrophoresis, 24 kDa to 20 kDa shift)” value in series [13] is recorded as “the other residues are substitutable with Ala”. For the same protein, the “cleavage by TEV protease” value is given as “the above-mentioned W tag fusion proteins, like single tag fusion proteins, can be used ... for cleavage by TEV protease” with W tag fused GFPUV and “the above-mentioned W tag fusion proteins, like single tag fusion proteins, can be used ... for cleavage by TEV protease” with W tag fused Fn, P02751.
